Measured values from patent US20230357354A1 (ENCEFA, published 2023).

What was measured:
[1] = target: human CD38 on cells (Daudi cells; CD38^+ Jurkat T cells) (human, UniProt P28907 1-300); assay: cell-based or functional assay
[2] = target: T1, recombinant human CD38 (Acrobio, ref CD8-H5224) (human, UniProt P28907 43-300); assay: SPR, Biacore 3000, CM5 chip, recombinant human CD38
T1 construct: Bought protein used in Biacore
Protocol: Binding affinity was measured and reported by the equilibrium dissociation constant (KD). Recombinant human CD38 (Acrobio, ref CD8-H5224) dissolved in milliQ water was used.

B1: looped peptide CRDQNFVILEFPVEEQC (SEQ ID NO: 9), free peptide (peptide)
peptide: CRDQNFVILEFPVEEQC
- EC50, glucose uptake (2-NBDG fluorescence), human Daudi cells [1]: ~0.1 nM

B2: CD31 peptide NSRDQNFVILEFPVE (linear) (peptide)
peptide: NSRDQNFVILEFPVE
- EC50, glucose uptake (2-NBDG fluorescence), human Daudi cells [1]: ~13 nM
- Kd [2]: 2.3 nM
